Molecular target: T1, proliferating cell nuclear antigen (PCNA) (human, UniProt P12004 1-261)
T1 construct: Endogenous intracellular protein, immunoprecipitated from HT29 cell lysate
Test: not described

T1 sequence (P12004 whole entry): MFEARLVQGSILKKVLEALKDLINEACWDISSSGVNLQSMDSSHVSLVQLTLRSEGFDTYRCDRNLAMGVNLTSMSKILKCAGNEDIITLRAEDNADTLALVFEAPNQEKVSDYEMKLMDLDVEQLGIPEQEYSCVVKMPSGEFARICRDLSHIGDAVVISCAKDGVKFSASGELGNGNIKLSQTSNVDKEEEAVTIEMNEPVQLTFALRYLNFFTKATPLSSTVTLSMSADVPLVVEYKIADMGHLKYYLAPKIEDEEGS

B1: polypeptide P15 (peptide)
peptide: MPYSTELIFYIEMDP
notes: 15-residue polypeptide fragment
- binding result: binds

From patent US20160303183A1 (WUHAN YICHENG BIOTECH, published 2016)
